Results on three molecules are retold here after article doi:10.1101/2025.05.11.653314, “Ureaplasma parvum SMC-ScpAB complex is capable of loop extrusion and demonstrates properties that distinguish it from Bacillus subtilis homologue” (bioRxiv, 2025).

B1: B. subtilis ScpA (natural protein, Bacillus subtilis, UniProt P35154 1-251, looked up)
chain: MEEYQVKIDTFEGPLDLLLHLINRLEIDIYDIPVAKITEQYLLYVHTMRVLELDIASEYLVMAATLLSIKSRMLLPKQEEELFEDELLEEEDPREELIEKLIEYRKYKDAAKDLKEREEERQKSFTKPPSDLSEYAKEVKQSEQKLSVTVYDMIGAFQKVLKRKKINRPMETTITRQDIPIEARMNEIVHSLKSRGTRINFMDLFPYEQKEHLVVTFLAVLELMKNQLVLIEQEHNFSDIYITGSESIHGA
notes: ScpA (kleisin of the Smc-ScpAB complex), Bacillus subtilis; gene cloned into pET21a; expected mass printed as 31 kDa; source: E. coli Rosetta (DE3), purified (Ni-NTA, MonoQ)
B3: B. subtilis Smc (enzyme, Bacillus subtilis, UniProt P51834 1-1186, looked up)
chain: MFLKRLDVIGFKSFAERISVDFVKGVTAVVGPNGSGKSNITDAIRWVLGEQSARSLRGGKMEDIIFAGSDSRKRLNLAEVTLTLDNDDHFLPIDFHEVSVTRRVYRSGESEFLINNQPCRLKDIIDLFMDSGLGKEAFSIISQGKVEEILSSKAEDRRSIFEEAAGVLKYKTRKKKAENKLFETQDNLNRVEDILHELEGQVEPLKIQASIAKDYLEKKKELEHVEIALTAYDIEELHGKWSTLKEKVQMAKEEELAESSAISAKEAKIEDTRDKIQALDESVDELQQVLLVTSEELEKLEGRKEVLKERKKNAVQNQEQLEEAIVQFQQKETVLKEELSKQEAVFETLQAEVKQLRAQVKEKQQALSLHNENVEEKIEQLKSDYFELLNSQASIRNELQLLDDQMSQSAVTLQRLADNNEKHLQERHDISARKAACETEFARIEQEIHSQVGAYRDMQTKYEQKKRQYEKNESALYQAYQYVQQARSKKDMLETMQGDFSGFYQGVKEVLKAKERLGGIRGAVLELISTEQKYETAIEIALGASAQHVVTDDEQSARKAIQYLKQNSFGRATFLPLSVIRDRQLQSRDAETAARHSSFLGVASELVTFDPAYRSVIQNLLGTVLITEDLKGANELAKLLGHRYRIVTLEGDVVNPGGSMTGGAVKKKNNSLLGRSRELEDVTKRLAEMEEKTALLEQEVKTLKHSIQDMEKKLADLRETGEGLRLKQQDVKGQLYELQVAEKNINTHLELYDQEKSALSESDEERKVRKRKLEEELSAVSEKMKQLEEDIDRLTKQKQTQSSTKESLSNELTELKIAAAKKEQACKGEEDNLARLKKELTETELALKEAKEDLSFLTSEMSSSTSGEEKLEEAAKHKLNDKTKTIELIALRRDQRIKLQHGLDTYERELKEMKRLYKQKTTLLKDEEVKLGRMEVELDNLLQYLREEYSLSFEGAKEKYQLETDPEEARKRVKLIKLAIEELGTVNLGSIDEFERVNERYKFLSEQKEDLTEAKNTLFQVIEEMDEEMTKRFNDTFVQIRSHFDQVFRSLFGGGRAELRLTDPNDLLHSGVEIIAQPPGKKLQNLNLLSGGERALTAIALLFSILKVRPVPFCVLDEVEAALDEANVFRFAQYLKKYSSDTQFIVITHRKGTMEEADVLYGVTMQESGVSKVISVKLEETKEFVQ
notes: Smc (ATPase of the Smc-ScpAB complex), Bacillus subtilis; gene cloned into pET21a; expected mass printed as 135.5 kDa; source: E. coli Rosetta (DE3), purified (HiTrap Q flow-through, Ni-NTA)

Common to all, as to assay: cross-linking; purified proteins in various combinations incubated with or without 0.4% formaldehyde in Hepes 50 mM pH 7.5, NaCl 100 mM, DTT 0.1 mM, 20% glycerol; denatured at 65°C with SDS and BME; SDS-PAGE; bands identified by mass spectrometry (peptide fingerprinting)
In the data set “B. subtilis Smc” the target is B3. As to conditions: both partners purified.
The data set “B. subtilis ScpA” concerns the target B1. As to conditions: both partners purified.
Data set [1] concerns the molecule itself.

As to B1, the binding result in the data set with B. subtilis Smc is given as “binds”.

B2: B. subtilis ScpB (natural protein, Bacillus subtilis, UniProt P35155 1-197, looked up)
chain: MGLDIVNWKAIVEALLYAAGDEGLTKKQLLTVLEIEEPELNTIMADVADEYRGDTRGIELIEYADTYMLSTKKDFAPYLKKLIEVPSKGLSQASLEVLAIVSYKQPITRAEIEEIRGVKSERILHSLVAKALLCEVGRADGPGRAILYGTTPTFLEQFGLKTLDELPPLPENAEEDVLQEEADLFFENFNQTFEDIK
notes: ScpB (KITE protein of the Smc-ScpAB complex), Bacillus subtilis; gene cloned into pET21a; expected mass printed as 23.2 kDa; source: E. coli Rosetta (DE3), purified (Ni-NTA, MonoQ)
B2: in the data set with B. subtilis ScpA, the binding result is “binds”. For the same molecule, the “stoichiometry N” value in data set [1] is 2.
In the case of B3, the “stoichiometry N” value in data set [1] amounted to 2.

For orientation: stoichiometry N means the number of molecules, sites or subunits per partner or assembly.
